# Experiments:
# [1] = biological target: telomere target construct (TCON): HALO-tagged fusion of EGFP, CIB1 and TRF1 (UniProt Q8GY61); assay: FRET or BRET; FLIM-FRET in live HeLa cells co-transfected with TCON and ECON; lifetime of EGFP (donor) with mCherry (acceptor); blue light 8 mW/cm^2 for 5 min (a similar response after 8 min at 1 mW/cm^2)
# [2] = biological target: telomere target construct (TCON): HALO-tagged fusion of EGFP, CIB1 and TRF1 (UniProt Q8GY61)
substance,measurement,setting,value
"epigenetic effector construct (ECON): HALO-tagged fusion of DNMT3A, CRY2PHR and mCherry (from UniProt Q9Y6K1 1-912)",average fluorescence lifetime of EGFP (FRET donor on TCON) after 5 min of blue light,[1],2.06 ns
same,"mean telomere length (TRF, Southern blot) of co-transfected HeLa cells exposed to blue light over three generations (5.3 Kb Gen-1 to 6.03 Kb Gen-3; without light 5.01 Kb to 4.6 Kb)",[2],6.03 Kb

# — publication PMC5226589
